Tests used:
[1] = tested on: NF-κB(p65); assay: Immunoblot of NF-κB activation in Caco-2 cytoplasmic and nuclear extracts; assay type: cell-based, human; details: LAP 1000 ng/mL or TNF-α 10 ng/mL
Protocol: To extract the proteins from Caco-2 cells, cells were seeded in 6-well plates for 14-21 days. Following treatment, the cells were washed, scraped from the bottom of 6-well plates, suspended in PBS, and pelleted by centrifugation. Total protein from Caco-2 cells was extracted using the M-PER Extraction Kit (Thermo Fisher Scientific). Detergent-insoluble (membrane) and detergent-soluble (cytosolic) proteins were isolated using a Mem-Per Eukaryotic Protein Extraction Kit (Thermo Fisher Scientific) while the cytosolic and nuclear proteins were extracted using NE-PER Extraction Reagent (Thermo Fisher Scientific). To extract proteins from ileal epithelial cells, the epithelial cell fraction from ileal tissues were isolated as described above and the detergent-insoluble and the detergent-soluble proteins were isolated using a Mem-Per Eukaryotic Protein Extraction Kit.
To extract total protein from intact bacterial cells, sample solvent buffer and sonication (3 cycles of […]) were used. To isolate the cell wall-associated proteins bacterial pellets were resuspended in 0.5 ml protein extraction buffer (0.5% SDS, 10 mM Tris at pH 6.9), and incubated at 37° C. for 30 min with agitation. The samples were centrifuged (14,000×g, 10 min, 4° C.), and the supernatants (containing cell wall-associated proteins) were retained. Halt proteases and phosphatase inhibitors (Thermo Fisher Scientific) were used during all of the protein extraction procedures. The protein concentrations were determined by BCA assay (Thermo Fisher Scientific), and separated on SDS-PAGE gels (10-12.5% polyacrylamide) and electro-transferred to polyvinylidene difluoride (PVDF) membrane (Millipore). The membranes were then blocked in 5% nonfat dry milk (NFDM) in 0.1 M Tris-buffered saline, pH 7.5 (TBS) containing 0.1% Tween 20 (TBST) for at least 1 h. All of the primary antibodies were diluted in 5% bovine serum albumin (BSA) or 5% NFDM in TBST and incubated overnight. Secondary antibodies (1:2000 in 5% NFDM in TBST) incubated for 1 h at 37° C., and a chemiluminescence method was performed using LumiGLO reagent (Cell Signaling). The membranes were exposed to X-ray films or visualized using the Chemi-Doc XRS system (Bio-Rad). To immunoprobe the same membrane with another antibody, the originally bound antibodies from the membranes were removed by incubating the membranes in Restore Western Blot Stripping Buffer (Thermo Fisher Scientific) according to the manufacturer's protocol. To compare the reaction intensities, the average band densities were determined using Quantity One software (Bio-Rad). Densitometry reports represent the mean±SEM after normalization to the loading control and is presented as % change of protein with the average for untreated cells (control) set at 100%. Immunoblots and densitometric reports are representative of 2-3 independent experiments.

[2] = tested on: NF-κB(p65); assay: Confocal immunofluorescence of p65 localization in Caco-2 cells; assay type: cell-based, human; details: 30 min
Protocol: For antibody labeling in cells, Caco-2 cells, were grown to 40-50% confluence in four-chambered slides (Millipore). At the end of the treatment, the cells were fixed with 3.7% formaldehyde in PBS for 20 min and permeabilized and blocked with PBS containing 0.3% Triton X-100 and 3% BSA (Sigma-Aldrich) for 1 h at room temperature and then incubated with respective antibodies overnight at 4° C. Following antibody incubation, the cells were washed with PBS (3 cycles, 5 min) and incubated with FITC or Alexa Fluor 555-conjugated secondary antibody for 2 h at room temperature. The nuclei were stained with DAPI (500 ng/ml; Cell signaling) and slides were mounted in ProLong antifade reagent (Cell Signaling).
All images were acquired using a Nikon A1R MP Multiphoton (Nikon) Confocal fluorescence microscope using a 60× oil immersion objective equipped with the Nikon Elements software (Nikon) at the Purdue Bioscience Imaging Facility. The X-Z and Y-Z cross-sections were produced by orthogonal reconstructions from z-stack scanning at 0.15 μm intervals taken with 60× objective in 5 μm thick paraffin embedded tissue section. Three-dimensional reconstructions were performed using Nikon elements software (Nikon).

[3] = tested on: NF-κB; assay: NF-κB luciferase reporter assay in RAW 264.7 cells; assay type: cell-based, murine; details: for NF-κB activation: purified proteins, LPS positive control; for NF-κB activation by LAP domains (luciferase activity): 1 μg/mL each, 6 h
Protocol: The NF-κB Luciferase reporter RAW 264.7 cell line (Novus Biologicals), which expresses an optimized Renilla luciferase reporter gene (RenSP) under the transcriptional control of an NF-κB response element, was used. The cells were seeded (1×10^5 cells/well) into 96-well luminometer-compatible plates for 16 h and then treated with analytes for 6 h. Media from each well were aspirated, and then 100 μL of ice-cold PBS was added to each well. The plates were then frozen solid at −80° C. overnight to completely lyse the cells, thawed back to room temperature, and luciferase assays were performed using the LightSwitch Luciferase assay kit (Novus Biologicals). Luminescence was measured as the relative luminescence units (RLU) using Spectramax (Spectramax, Molecular Devices) and reported as the relative fold change compared with that of the control cells that were treated with media alone. Recombinant human or mouse TNF-α (R&D Systems) and polymyxin B, LPS (E. coli Serotype R515, Re, TLR grade), and proteinase K (each from Sigma-Aldrich) were used.

Q: What does the source list for TNF-α [reference compound]?
A: time of appearance of cytoplasmic phospho-IκBα (Ser32) [1]: 15 min; time of increase in nuclear p65 and P-p65 [1]: 30 min; localization of p65 ([2]; Caco-2 cells, LAP 1 μg/mL or TNF-α 10 ng/mL): in the nucleus; localization of p65 ([2]; Hsp60 knocked-down Caco-2 cells): slight reduction in the nuclear translocation of p65

B1: InlB: purified recombinant InlB protein of Listeria (protein, UniProt P0DQD2 31-630, looked up)
Internalin B: AKVQAETITVPTPIKQIFSDDAFAETIKDNLKKKSVTDAVTQNELNSIDQIIANNSDIKSVQGIQYLPNVTKLFLNGNKLTDIKPLANLKNLGWLFLDENKVKDLSSLKDLKKLKSLSLEHNGISDINGLVHLPQLESLYLGNNKITDITVLSRLTKLDTLSLEDNQISDIVPLAGLTKLQNLYLSKNHISDLRALAGLKNLDVLELFSQECLNKPINHQSNLVVPNTVKNTDGSLVTPEIISDDGDYEKPNVKWHLPEFTNEVSFIFYQPVTIGKAKARFHGRVTQPLKEVYTVSYDVDGTVIKTKVEAGTRITAPKPPTKQGYVFKGWYTEKNGGHEWNFNTDYMSGNDFTLYAVFKAETTEKAVNLTRYVKYIRGNAGIYKLPREDNSLKQGTLASHRCKALTVDREARNGGKLWYRLKNIGWTKAENLSLDRYDKMEYDKGVTAYARVRNASGNSVWTKPYNTAGAKHVNKLSVYQGKNMRILREAKTPITTWYQFSIGGKVIGWVDTRALNTFYKQSMEKPTRLTRYVSANKAGESYYKVPVADNPVKRGTLAKYKNQKLIVDCQATIEGQLWYRIRTSSTFIGWTKAANLRAQK
Q: Which results are given for B1?
A: NF-κB activation ability after polymyxin-B treatment [3]: retained the NF-κB activation ability; NF-κB activation after proteinase-K treatment [3]: abolished; NF-κB activation ability after heat treatment ([3]; 100° C., 10 min): abolished the NF-κB activation ability; NF-κB activation [3]: activated NF-κB

B2: C2: LAP fragment C2 (Pro649-Val866); histidine-tagged form SEQ ID NO: 9 (protein)
chain: PAHITADTGMDVLTHAIESYVSVMASDYTRGLSIRAIELVFENLRESVLTGDPDAREKMHNASALAGMAFANAFLGINHSLAHKIGPEFHIPHGRANAILMPHVIRYNALKPKKHALFPRYESFRADEDYARISRIIGFPAATTEEGVKSLVDEIIKLGKDVGIDMSLKGQNVAKKDLDAVVDTLADRAFMDQCTTANPKQPLVSELKEIYLEAYKGV
modifications: Listeria Adhesion Protein C2 domain
Q: With B2 as the molecule, how does the “NF-κB activation by LAP domains (luciferase activity)” value (shortened to “NF-κB activation by LAP domains”) [3] read?
A: activity similar to the untreated control cells

B3: N1: LAP fragment N1 (Met1-Pro223); histidine-tagged form SEQ ID NO: 7 (protein)
chain: MAIKENAAQEVLEVQKVIDRLADNGQKALKAFESYNQEQVDNIVHAMALAGLDQHMPLAKLAVEETGRGLYEDKCIKNIFATEYIWNNIKNNKTVGVINEDVQTGVIEIAEPVGVVAGVTPVTNPTSTTLFKAIIAIKTRNPIIFAFHPSAQRCSSAAAKVVYDAAIAAGAPEHCIQWVEKPSLEATKQLMNHDKVALVLATGGAGMVKSAYSTGKPALGVGP
modifications: Listeria Adhesion Protein N1 domain
Q: Which “NF-κB activation by LAP domains” value [3] does the source give for B3 here?
A: activity similar to the untreated control cells

B4: N2: LAP fragment N2 (Gly224-Gly411); histidine-tagged form SEQ ID NO: 3 (protein)
chain: GNVPAYIDKTAKIKRSVNDIILSKSFDQGMICASEQAVIVDKEVAKEVKAEMEANKCYFVKGAEFKKLESYVINPEKGTLNPDVVGKSPAWIANQAGFKVPEDTKILVAEIKGVGDKYPLSHEKLSPVLAFIEAANQAEAFDRCEEMLVYGGLGHSAVIHSTDKEVQKAFGIRMKACRIIVNAPSAQG
modifications: Listeria Adhesion Protein N2 domain
Q: B4 was tested. Which “NF-κB activation by LAP domains” value [3] did it give?
A: activated NF-κB nearly as effectively as the full-length LAP

B5: C1: LAP fragment C1 (Gly412-Val648); histidine-tagged form SEQ ID NO: 8 (protein)
chain: GGIGDIYNGFIPSLTLGCGSYGKNSVSQNVSATNLLNVKRIADRRNNMQWFKLPPKIFFEKYSTQYLQKMEGVERVFIVTDPGMGSFKYVDVVIEHLKKRGNDVAYQVFADVEPDPSDVTVYKGAELMKDFKPDTIIALGGGSAMDAAKGMWLFYEHPEASFFGLKQKFLDIRKRTFKYPKLGGKAKFVAIPTTSGTGSEVTPFAVITDKENNIKYPLADYELTPDVAIVDAQYVTTV
modifications: Listeria Adhesion Protein C1 domain
Q: Which “NF-κB activation by LAP domains” value [3] does the source give for B5 here?
A: activity similar to the untreated control cells

B6: InlA: purified recombinant InlA, Listeria surface protein Internalin A (protein)
chain: ATITQDTPINQIFTDTALAEKMKTVLGKTNVTDTVSQTDLDQVTTLQADRLGIKSIDGVEYLNNLTQINFSNNQLTDITPLKNLTKLVDILMNNNQIADITPLANLTNLTGLTLFNNQITDIDPLKNLTNLNRLELSSNTISDISALSGLTSLQQLSFGNQVTDLKPLANLTTLERLDISSNKVSDISVLAKLTNLESLIATNNQISDITPLGILTNLDELSLNGNQLKDIGTLASLTNLTDLDLANNQISNLAPLSGLTKLTELKLGANQISNISPLAGLTALTNLELNENQLEDISPISNLKNLTYLTLYFNNISDISPVSSLTKLQRLFFYNNKVSDVSSLANLTNINWLSAGHNQISDLTPLANLTRITQLGLNDQAWTNAPVNYKANVSIPNTVKNVTGALIAPATISDGGSYTEPDITWNLPSYTNEVSYTFSQPVTIGKGTTTFSGTVTQPLKAIFNVKFHVDGKETTKEVEAGNLLTEPAKPVKEGHTFVGWFDAQTGGTKWNFSTDKMPTNDINLYAQFSINSYTATFDNDGVTTSQTVDYQGLLQEPTAPTKEGYTFKGWYDAKTGGDKWDFATSKMPAKNITLYAQYSANSYTATFDVDGKSTTQAVDYQGLLKEPKAPTKAGYTFKGWYDEKTDGKKWDFATDKMPANDITLYAQFTKNPVAPPTTGGNTPPTTNNGGNTTPPSANIPGSDTSNTSTGNSASTTSTMNAYDPYNSKEASLPTT
Q: For B6, which NF-κB activation [3] is on record?
A: neutral

Reference: patent US10632208B2, “Peptide-mediated drug delivery across epithelial barrier” (Purdue Research Foundation, priority 2017, dated 2020)
